The values that follow come from PMC11809415 (2025).

B1: F-tractinopt–mCherry fusion [rat] / F-actin (rabbit skeletal muscle α-actin filaments) [rabbit] (parent complex)
chain 1: APRRSVGELRLLFEARAASAA
chain 2: not shown

In the first test the parent is B1. Kind of test: high-speed cosedimentation assay (SDS-PAGE densitometry); 2 µM F-tractin-mCherry; high-speed sedimentation, 120,000 g; point at the highest actin level (40 µM total, about 40 µM free F-actin); read off a plot.
chain 1 F13A: the response is ~0.06 fraction of F-tractin bound.

The variants in a further test derive from B1. Put plainly: high-speed cosedimentation assay (SDS-PAGE densitometry); 2 µM F-tractin-mCherry; high-speed sedimentation, 120,000 g; actin 0-40 µM.
One may read the Kd as a measure of binding affinity in units of concentration. chain 1 R3A: the Kd was found to be 23 µM.

Variants of B1 are the subject of another test. Kind of test: high-speed cosedimentation assay (SDS-PAGE densitometry); 2 µM F-tractin-mCherry; high-speed sedimentation, 120,000 g; point at the highest actin level (40 µM total, about 39 µM free F-actin); read off a plot.
With chain 1 R3A, the response was ~0.44 fraction of F-tractin bound.
